We go through 1 molecule from paper PMC4191604 (Journal of Medicinal Chemistry, 2014).

Residue numbers refer to the chain shown, from its start.

Common to all, as to experiment: SPR
(In general: Surface plasmon resonance follows binding to a sensor surface in real time, without labels.)

The target in assay [1] is T1, GBP1 mutant R227E/K228E (human, UniProt P32455 1-592, R227E | K228E).
T1 sequence (looked up): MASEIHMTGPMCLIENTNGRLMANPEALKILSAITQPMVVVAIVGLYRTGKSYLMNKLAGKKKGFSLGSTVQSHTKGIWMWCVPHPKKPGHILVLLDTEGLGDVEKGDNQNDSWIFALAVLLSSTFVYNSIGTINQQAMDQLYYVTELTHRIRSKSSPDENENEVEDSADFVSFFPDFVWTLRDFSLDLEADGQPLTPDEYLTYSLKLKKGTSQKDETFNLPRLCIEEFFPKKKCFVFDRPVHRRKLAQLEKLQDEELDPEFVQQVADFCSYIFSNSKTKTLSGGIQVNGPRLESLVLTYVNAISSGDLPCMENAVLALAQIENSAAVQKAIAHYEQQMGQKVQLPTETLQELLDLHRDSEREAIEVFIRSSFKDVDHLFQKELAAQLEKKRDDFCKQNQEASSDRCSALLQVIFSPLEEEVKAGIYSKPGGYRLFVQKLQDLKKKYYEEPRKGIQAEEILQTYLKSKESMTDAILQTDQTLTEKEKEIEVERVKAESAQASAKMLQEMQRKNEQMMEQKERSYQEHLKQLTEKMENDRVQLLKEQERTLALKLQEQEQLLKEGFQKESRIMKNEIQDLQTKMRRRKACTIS

The target in assay [2] is T2, GBP1 mutant R227A/K228A (human, UniProt P32455 1-592, R227A | K228A).
T2 sequence (looked up): T1 sequence (looked up) with E227A, E228A

For assay [3], the target named is T3, GBP1 mutant R48A (human, UniProt P32455 1-592, R48A).
T3 sequence (looked up): T1 sequence (looked up) with R48A, E227R, E228K

In assay [4] the target is T4, GBP1 mutant K51A (human, UniProt P32455 1-592, K51A).
T4 sequence (looked up): T1 sequence (looked up) with K51A, E227R, E228K

B1: PIM1 (recombinant) (enzyme)
chain: not shown
For orientation: Kd means the free concentration of one partner at which half of the binding sites on the other are occupied at equilibrium, for simple one-to-one binding. High values mean weaker binding, low ones tighter binding. On to B1, for which the Kd in assay [1] was above 10000 nM; in assay [2], 137 ± 14 nM; in assay [3] it was 290 ± 21 nM; in assay [4] it was 50 ± 10 nM.
